Test results: patent publication US6790444

Key:
human lymphotoxin (TNFβ) = molecular target: T1, human lymphotoxin (TNFβ) (human, UniProt P01374 35-205, limits assumed); test: cell-based or functional assay
T1 sequence (looked up): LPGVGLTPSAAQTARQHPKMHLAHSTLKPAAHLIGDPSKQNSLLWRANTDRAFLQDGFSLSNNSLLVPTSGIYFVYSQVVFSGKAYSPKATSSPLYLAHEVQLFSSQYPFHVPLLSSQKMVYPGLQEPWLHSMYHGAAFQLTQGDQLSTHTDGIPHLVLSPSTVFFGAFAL

[1] = molecular target: human tumor necrosis factor-α (TNFα) (human) (UniProt P01375); test: cell-based or functional assay
human tumor necrosis factor-α (TNFα) (human), sequence (P01375 77-233): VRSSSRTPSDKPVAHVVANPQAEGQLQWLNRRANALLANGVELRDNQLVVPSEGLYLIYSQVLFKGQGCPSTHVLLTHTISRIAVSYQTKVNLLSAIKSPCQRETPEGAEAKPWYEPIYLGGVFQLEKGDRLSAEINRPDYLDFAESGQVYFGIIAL

In the case of “p55-sf2 (p55 TNF receptor / IgG1 heavy chain single fusion with truncated light chain JCK) (from UniProt P19438 32-188) (Fc fusion)”, the amount needed for the same degree of inhibition of TNFβ cytotoxicity, against p75P-sf2 (human lymphotoxin (TNFβ)) is reported as 3 fold.

B1: chimeric mouse/human IgG1 anti-platelet mAb (7E3) (antibody, INN chains, looked up, V domains shown)
VH: EVQLQQSGTVLARPGASVKMSCEASGYTFTNYWMHWVKQRPGQGLEWIGAIYPGNSDTSYIQKFKGKAKLTAVTSTTSVYMELSSLTNEDSAVYYCTLYDGYYVFAYWGQGTLVTVSA
VL: EIVLTQSPVTLSVTPGDSVSLSCRASRDISNNLHWFQQTSHESPRLLIKYASQSMSGIPSRFSGSGSGTDFTLSINSVETEDFGMYFCQQTNSWPYTFGGGTKLEIK
modifications: chimeric IgG1
With B1 the IL-6 secreted by FS-4 fibroblasts; 0.3 ng/ml rhTNF, 4 µg/ml antibody [1] was 1.6 ng/mL, the IL-6 secreted by FS-4 fibroblasts; 1.5 ng/ml rhTNF, 4 µg/ml antibody [1] was 1.96 ng/mL and the IL-6 secreted by FS-4 fibroblasts; 7.5 ng/ml rhTNF, 4 µg/ml antibody [1] was 2.16 ng/mL.

B2: p75-sf2 (complete p75 extracellular domain fused to the IgG1 heavy chain) (Fc fusion)
chain: QLPAQVAFTPYAPEPGSTCRLREYYDQTAQMCCSKCSPGQHAKVFCTKTSDTVCDSCEDSTYTQLWNWVPECLSCGSRCSSDQVETQACTREQNRICTCRPGWYCALSKQEGCRLCAPLRKCRPGFGVARPGTETSDVVCKPCAPGTFSNTTSSTDICRPHQICNVVAIPGNASMDAVCTSTSPTRSMAPGAVHLPQPVSTRSQHTQPTPEPSTAPSTSFLLPMGPSPPAEGSTGDGTLVTVSS
In the case of B2, the “amount needed for the same degree of inhibition of TNFβ cytotoxicity, against p75P-sf2” value (human lymphotoxin (TNFβ)) is reported as 3 fold.
